Reference: patent publication US20180155451A1 (published 2018)

Target: T1, FcγRIa extracellular domain with C-terminal His tag (human, UniProt P12314 16-292)
T1 construct: extracellular domain; soluble analyte in Biacore; also called FcgRI; CD64
Test: SPR (Biacore), relative FcγRIa binding, GpH7-B3/GpL16-k0 (HoCon Ab) = 100

T1 sequence (P12314 16-292): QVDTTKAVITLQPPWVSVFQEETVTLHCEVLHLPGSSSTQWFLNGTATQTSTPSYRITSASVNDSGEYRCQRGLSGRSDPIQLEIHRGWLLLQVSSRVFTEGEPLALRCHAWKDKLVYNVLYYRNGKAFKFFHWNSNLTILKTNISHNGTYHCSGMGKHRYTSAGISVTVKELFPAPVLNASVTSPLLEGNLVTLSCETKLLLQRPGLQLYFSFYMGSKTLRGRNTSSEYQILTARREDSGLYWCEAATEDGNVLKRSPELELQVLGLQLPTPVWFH

Binder	Ho/Con_1a
GpH7-B3 variant S267_19Q/GpL16-k0 (antibody, human IgG1, kappa, homodimerized antibody, mutation in both H chains; also called S267_19Q Ho Ab) heavy: not shown light: DIVMTQSPLSLPVTPGEPASISCQASESLVHSNRNTYLHWYLQKPGQSPQLLIYKVSNRFSGVPDRFSGSGSGTDFTLKISRVEAEDVGVYYCSQNTHVPPTFGQGTKVEIERTVAAPSVFIFPPSDEQLKSGTASVVCLLNNFYPREAKVQWKVDNALQSGNSQESVTEQDSKDSTYSLSSTLTLSKADYEKHKVYACEVTHQGLSSPVTKSFNRGEC	104 % of control
GpH7-B3 variant S337_16H/GpL16-k0 (antibody, human IgG1, kappa, homodimerized antibody, mutation in both H chains; also called S337_16H Ho Ab) heavy: not shown light: DIVMTQSPLSLPVTPGEPASISCQASESLVHSNRNTYLHWYLQKPGQSPQLLIYKVSNRFSGVPDRFSGSGSGTDFTLKISRVEAEDVGVYYCSQNTHVPPTFGQGTKVEIERTVAAPSVFIFPPSDEQLKSGTASVVCLLNNFYPREAKVQWKVDNALQSGNSQESVTEQDSKDSTYSLSSTLTLSKADYEKHKVYACEVTHQGLSSPVTKSFNRGEC	105 % of control
GpH7-B3 variant S337_14T/GpL16-k0 (antibody, human IgG1, kappa, homodimerized antibody, mutation in both H chains; also called S337_14T Ho Ab) heavy: not shown light: DIVMTQSPLSLPVTPGEPASISCQASESLVHSNRNTYLHWYLQKPGQSPQLLIYKVSNRFSGVPDRFSGSGSGTDFTLKISRVEAEDVGVYYCSQNTHVPPTFGQGTKVEIERTVAAPSVFIFPPSDEQLKSGTASVVCLLNNFYPREAKVQWKVDNALQSGNSQESVTEQDSKDSTYSLSSTLTLSKADYEKHKVYACEVTHQGLSSPVTKSFNRGEC	106 % of control
GpH7-B3 variant S337_11K/GpL16-k0 (antibody, human IgG1, kappa, homodimerized antibody, mutation in both H chains; also called S337_11K Ho Ab) heavy: not shown light: DIVMTQSPLSLPVTPGEPASISCQASESLVHSNRNTYLHWYLQKPGQSPQLLIYKVSNRFSGVPDRFSGSGSGTDFTLKISRVEAEDVGVYYCSQNTHVPPTFGQGTKVEIERTVAAPSVFIFPPSDEQLKSGTASVVCLLNNFYPREAKVQWKVDNALQSGNSQESVTEQDSKDSTYSLSSTLTLSKADYEKHKVYACEVTHQGLSSPVTKSFNRGEC	105 % of control
GpH7-B3 variant S324_10E/GpL16-k0 (antibody, human IgG1, kappa, homodimerized antibody, mutation in both H chains; also called S324_10E Ho Ab) heavy: not shown light: DIVMTQSPLSLPVTPGEPASISCQASESLVHSNRNTYLHWYLQKPGQSPQLLIYKVSNRFSGVPDRFSGSGSGTDFTLKISRVEAEDVGVYYCSQNTHVPPTFGQGTKVEIERTVAAPSVFIFPPSDEQLKSGTASVVCLLNNFYPREAKVQWKVDNALQSGNSQESVTEQDSKDSTYSLSSTLTLSKADYEKHKVYACEVTHQGLSSPVTKSFNRGEC	106 % of control
GpH7-B3 variant S337_18N/GpL16-k0 (antibody, human IgG1, kappa, homodimerized antibody, mutation in both H chains; also called S337_18N Ho Ab) heavy: not shown light: DIVMTQSPLSLPVTPGEPASISCQASESLVHSNRNTYLHWYLQKPGQSPQLLIYKVSNRFSGVPDRFSGSGSGTDFTLKISRVEAEDVGVYYCSQNTHVPPTFGQGTKVEIERTVAAPSVFIFPPSDEQLKSGTASVVCLLNNFYPREAKVQWKVDNALQSGNSQESVTEQDSKDSTYSLSSTLTLSKADYEKHKVYACEVTHQGLSSPVTKSFNRGEC	106 % of control
GpH7-B3 variant S298_09D/GpL16-k0 (antibody, human IgG1, kappa, homodimerized antibody, mutation in both H chains; also called S298_09D Ho Ab) heavy: not shown light: DIVMTQSPLSLPVTPGEPASISCQASESLVHSNRNTYLHWYLQKPGQSPQLLIYKVSNRFSGVPDRFSGSGSGTDFTLKISRVEAEDVGVYYCSQNTHVPPTFGQGTKVEIERTVAAPSVFIFPPSDEQLKSGTASVVCLLNNFYPREAKVQWKVDNALQSGNSQESVTEQDSKDSTYSLSSTLTLSKADYEKHKVYACEVTHQGLSSPVTKSFNRGEC	106 % of control
GpH7-B3 variant S324_09D/GpL16-k0 (antibody, human IgG1, kappa, homodimerized antibody, mutation in both H chains; also called S324_09D Ho Ab) heavy: not shown light: DIVMTQSPLSLPVTPGEPASISCQASESLVHSNRNTYLHWYLQKPGQSPQLLIYKVSNRFSGVPDRFSGSGSGTDFTLKISRVEAEDVGVYYCSQNTHVPPTFGQGTKVEIERTVAAPSVFIFPPSDEQLKSGTASVVCLLNNFYPREAKVQWKVDNALQSGNSQESVTEQDSKDSTYSLSSTLTLSKADYEKHKVYACEVTHQGLSSPVTKSFNRGEC	106 % of control

Further lines, results first:

Ho/Con_1a	Binder
105 % of control	GpH7-B3 variant T335_13S/GpL16-k0 (antibody, human IgG1, kappa, homodimerized antibody, mutation in both H chains; also called T335_13S Ho Ab) heavy: not shown light: DIVMTQSPLSLPVTPGEPASISCQASESLVHSNRNTYLHWYLQKPGQSPQLLIYKVSNRFSGVPDRFSGSGSGTDFTLKISRVEAEDVGVYYCSQNTHVPPTFGQGTKVEIERTVAAPSVFIFPPSDEQLKSGTASVVCLLNNFYPREAKVQWKVDNALQSGNSQESVTEQDSKDSTYSLSSTLTLSKADYEKHKVYACEVTHQGLSSPVTKSFNRGEC
106 % of control	GpH7-B3 variant Y296_07I/GpL16-k0 (antibody, human IgG1, kappa, homodimerized antibody, mutation in both H chains; also called Y296_07I Ho Ab) heavy: not shown light: DIVMTQSPLSLPVTPGEPASISCQASESLVHSNRNTYLHWYLQKPGQSPQLLIYKVSNRFSGVPDRFSGSGSGTDFTLKISRVEAEDVGVYYCSQNTHVPPTFGQGTKVEIERTVAAPSVFIFPPSDEQLKSGTASVVCLLNNFYPREAKVQWKVDNALQSGNSQESVTEQDSKDSTYSLSSTLTLSKADYEKHKVYACEVTHQGLSSPVTKSFNRGEC
105 % of control	GpH7-B3 variant T335_02A/GpL16-k0 (antibody, human IgG1, kappa, homodimerized antibody, mutation in both H chains; also called T335_02A Ho Ab) heavy: not shown light: DIVMTQSPLSLPVTPGEPASISCQASESLVHSNRNTYLHWYLQKPGQSPQLLIYKVSNRFSGVPDRFSGSGSGTDFTLKISRVEAEDVGVYYCSQNTHVPPTFGQGTKVEIERTVAAPSVFIFPPSDEQLKSGTASVVCLLNNFYPREAKVQWKVDNALQSGNSQESVTEQDSKDSTYSLSSTLTLSKADYEKHKVYACEVTHQGLSSPVTKSFNRGEC
106 % of control	GpH7-B3 variant T335_01G/GpL16-k0 (antibody, human IgG1, kappa, homodimerized antibody, mutation in both H chains; also called T335_01G Ho Ab) heavy: not shown light: DIVMTQSPLSLPVTPGEPASISCQASESLVHSNRNTYLHWYLQKPGQSPQLLIYKVSNRFSGVPDRFSGSGSGTDFTLKISRVEAEDVGVYYCSQNTHVPPTFGQGTKVEIERTVAAPSVFIFPPSDEQLKSGTASVVCLLNNFYPREAKVQWKVDNALQSGNSQESVTEQDSKDSTYSLSSTLTLSKADYEKHKVYACEVTHQGLSSPVTKSFNRGEC
104 % of control	GpH7-B3 variant Y296_03V/GpL16-k0 (antibody, human IgG1, kappa, homodimerized antibody, mutation in both H chains; also called Y296_03V Ho Ab) heavy: not shown light: DIVMTQSPLSLPVTPGEPASISCQASESLVHSNRNTYLHWYLQKPGQSPQLLIYKVSNRFSGVPDRFSGSGSGTDFTLKISRVEAEDVGVYYCSQNTHVPPTFGQGTKVEIERTVAAPSVFIFPPSDEQLKSGTASVVCLLNNFYPREAKVQWKVDNALQSGNSQESVTEQDSKDSTYSLSSTLTLSKADYEKHKVYACEVTHQGLSSPVTKSFNRGEC
109 % of control	GpH7-B3 variant Y300_07I/GpL16-k0 (antibody, human IgG1, kappa, homodimerized antibody, mutation in both H chains; also called Y300_07I Ho Ab) heavy: not shown light: DIVMTQSPLSLPVTPGEPASISCQASESLVHSNRNTYLHWYLQKPGQSPQLLIYKVSNRFSGVPDRFSGSGSGTDFTLKISRVEAEDVGVYYCSQNTHVPPTFGQGTKVEIERTVAAPSVFIFPPSDEQLKSGTASVVCLLNNFYPREAKVQWKVDNALQSGNSQESVTEQDSKDSTYSLSSTLTLSKADYEKHKVYACEVTHQGLSSPVTKSFNRGEC
111 % of control	GpH7-B3 variant Y300_16H/GpL16-k0 (antibody, human IgG1, kappa, homodimerized antibody, mutation in both H chains; also called Y300_16H Ho Ab) heavy: not shown light: DIVMTQSPLSLPVTPGEPASISCQASESLVHSNRNTYLHWYLQKPGQSPQLLIYKVSNRFSGVPDRFSGSGSGTDFTLKISRVEAEDVGVYYCSQNTHVPPTFGQGTKVEIERTVAAPSVFIFPPSDEQLKSGTASVVCLLNNFYPREAKVQWKVDNALQSGNSQESVTEQDSKDSTYSLSSTLTLSKADYEKHKVYACEVTHQGLSSPVTKSFNRGEC
105 % of control	GpH7-B3 variant Y296_08L/GpL16-k0 (antibody, human IgG1, kappa, homodimerized antibody, mutation in both H chains; also called Y296_08L Ho Ab) heavy: not shown light: DIVMTQSPLSLPVTPGEPASISCQASESLVHSNRNTYLHWYLQKPGQSPQLLIYKVSNRFSGVPDRFSGSGSGTDFTLKISRVEAEDVGVYYCSQNTHVPPTFGQGTKVEIERTVAAPSVFIFPPSDEQLKSGTASVVCLLNNFYPREAKVQWKVDNALQSGNSQESVTEQDSKDSTYSLSSTLTLSKADYEKHKVYACEVTHQGLSSPVTKSFNRGEC
103 % of control	GpH7-B3 variant Y296_02A/GpL16-k0 (antibody, human IgG1, kappa, homodimerized antibody, mutation in both H chains; also called Y296_02A Ho Ab) heavy: not shown light: DIVMTQSPLSLPVTPGEPASISCQASESLVHSNRNTYLHWYLQKPGQSPQLLIYKVSNRFSGVPDRFSGSGSGTDFTLKISRVEAEDVGVYYCSQNTHVPPTFGQGTKVEIERTVAAPSVFIFPPSDEQLKSGTASVVCLLNNFYPREAKVQWKVDNALQSGNSQESVTEQDSKDSTYSLSSTLTLSKADYEKHKVYACEVTHQGLSSPVTKSFNRGEC

Target: T1, FcγRIa extracellular domain with …
Test: SPR (Biacore), relative FcγRIa binding, GpH7-A5/GpH7-B3/GpL16-k0 (HeCon Ab) = 100

Binder	He/Con_1a
GpH7-A5/GpH7-B3 variant K334_01G/GpL16-k0 (antibody, human IgG1, kappa, heterodimerized antibody, mutation in one H chain only; also called K334_01G He Ab) heavy 1: not shown heavy 2: not shown light: DIVMTQSPLSLPVTPGEPASISCQASESLVHSNRNTYLHWYLQKPGQSPQLLIYKVSNRFSGVPDRFSGSGSGTDFTLKISRVEAEDVGVYYCSQNTHVPPTFGQGTKVEIERTVAAPSVFIFPPSDEQLKSGTASVVCLLNNFYPREAKVQWKVDNALQSGNSQESVTEQDSKDSTYSLSSTLTLSKADYEKHKVYACEVTHQGLSSPVTKSFNRGEC	104 % of control
GpH7-A5/GpH7-B3 variant I336_16H/GpL16-k0 (antibody, human IgG1, kappa, heterodimerized antibody, mutation in one H chain only; also called I336_16H He Ab) heavy 1: not shown heavy 2: not shown light: DIVMTQSPLSLPVTPGEPASISCQASESLVHSNRNTYLHWYLQKPGQSPQLLIYKVSNRFSGVPDRFSGSGSGTDFTLKISRVEAEDVGVYYCSQNTHVPPTFGQGTKVEIERTVAAPSVFIFPPSDEQLKSGTASVVCLLNNFYPREAKVQWKVDNALQSGNSQESVTEQDSKDSTYSLSSTLTLSKADYEKHKVYACEVTHQGLSSPVTKSFNRGEC	101 % of control
GpH7-A5/GpH7-B3 variant K326_04F/GpL16-k0 (antibody, human IgG1, kappa, heterodimerized antibody, mutation in one H chain only; also called K326_04F He Ab) heavy 1: not shown heavy 2: not shown light: DIVMTQSPLSLPVTPGEPASISCQASESLVHSNRNTYLHWYLQKPGQSPQLLIYKVSNRFSGVPDRFSGSGSGTDFTLKISRVEAEDVGVYYCSQNTHVPPTFGQGTKVEIERTVAAPSVFIFPPSDEQLKSGTASVVCLLNNFYPREAKVQWKVDNALQSGNSQESVTEQDSKDSTYSLSSTLTLSKADYEKHKVYACEVTHQGLSSPVTKSFNRGEC	102 % of control
GpH7-A5/GpH7-B3 variant I336_15Y/GpL16-k0 (antibody, human IgG1, kappa, heterodimerized antibody, mutation in one H chain only; also called I336_15Y He Ab) heavy 1: not shown heavy 2: not shown light: DIVMTQSPLSLPVTPGEPASISCQASESLVHSNRNTYLHWYLQKPGQSPQLLIYKVSNRFSGVPDRFSGSGSGTDFTLKISRVEAEDVGVYYCSQNTHVPPTFGQGTKVEIERTVAAPSVFIFPPSDEQLKSGTASVVCLLNNFYPREAKVQWKVDNALQSGNSQESVTEQDSKDSTYSLSSTLTLSKADYEKHKVYACEVTHQGLSSPVTKSFNRGEC	103 % of control
GpH7-A5/GpH7-B3 variant K326_03V/GpL16-k0 (antibody, human IgG1, kappa, heterodimerized antibody, mutation in one H chain only; also called K326_03V He Ab) heavy 1: not shown heavy 2: not shown light: DIVMTQSPLSLPVTPGEPASISCQASESLVHSNRNTYLHWYLQKPGQSPQLLIYKVSNRFSGVPDRFSGSGSGTDFTLKISRVEAEDVGVYYCSQNTHVPPTFGQGTKVEIERTVAAPSVFIFPPSDEQLKSGTASVVCLLNNFYPREAKVQWKVDNALQSGNSQESVTEQDSKDSTYSLSSTLTLSKADYEKHKVYACEVTHQGLSSPVTKSFNRGEC	102 % of control
